Two molecules from paper doi:10.1101/2025.11.18.689095 (bioRxiv, 2025) can be followed below.

Holding throughout (details): both partners purified
The target in test [1] is T1, ^19F-labeled Tom70 (5-fluoro-tryptophan, residues 108–608) (human, UniProt O94826 108-608, 5-fluoro-tryptophan at W169 and W523).
T1 construct: human Tom70, residues 108-608; also called ^19F Tom70; 5F-Trp Tom70; source: E. coli BL21(DE3) in M9 media supplemented with 5-fluoro-tryptophan, purified as unlabeled Tom70; not shown: Avi, N-terminal, cleaved; His6, N-terminal, cleaved
T1 sequence: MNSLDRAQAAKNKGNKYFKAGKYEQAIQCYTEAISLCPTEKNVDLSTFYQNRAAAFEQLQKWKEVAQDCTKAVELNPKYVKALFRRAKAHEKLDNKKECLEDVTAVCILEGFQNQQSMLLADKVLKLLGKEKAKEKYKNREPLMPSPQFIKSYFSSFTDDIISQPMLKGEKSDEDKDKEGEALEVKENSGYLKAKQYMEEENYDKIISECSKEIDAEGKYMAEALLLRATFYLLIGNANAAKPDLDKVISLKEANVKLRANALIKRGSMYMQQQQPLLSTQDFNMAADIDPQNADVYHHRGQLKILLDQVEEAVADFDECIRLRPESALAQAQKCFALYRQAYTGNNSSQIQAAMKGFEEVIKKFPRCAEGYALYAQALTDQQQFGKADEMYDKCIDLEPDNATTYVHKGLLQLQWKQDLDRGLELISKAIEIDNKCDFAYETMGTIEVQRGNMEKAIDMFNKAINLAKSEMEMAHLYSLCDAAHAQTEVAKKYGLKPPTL
As to the kind of experiment: NMR titration; […]) 130 μM, […]) 400 μM, […]; 25°C; […].

Test [2] addresses T2, Tom70:Hsp90_(EEVD) complex (human, UniProt O94826 108-608, C-terminus not amidated (free carboxyl)).
T2 construct: human Tom70, residues 108-608; tyrosine added to aid with quantification; C-terminal residues 724-732 of human Hsp90α; also called Tom70 complexed with Hsp90_(EEVD) peptide; not shown: Avi, N-terminal, cleaved; His6, N-terminal, cleaved
As to the kind of experiment: ITC; Orf9b_(Helix) (120 μM) titrated into 15 μM Tom70 or Tom70:Hsp90_(EEVD) complex (15 μM Tom70: 400 μM Hsp90_(EEVD)); 20°C; 20 mM sodium phosphate pH 7, 100 mM NaCl, 2 mM TCEP; 1:1 binding model.

Test [3] addresses T3, human Tom70 (residues 108–608) (human, UniProt O94826 108-608).
T3 construct: human Tom70 (translocase of outer mitochondria membrane 70), residues 108-608; N-terminal Avi tag, His6 tag, (GGS)5 linker and TEV site removed by TEV protease; also called hTom70; free Tom70; source: E. coli BL21 (DE3), purified (Ni-NTA, TEV cleavage, second Ni column, SEC); not shown: Avi, N-terminal, cleaved; His6, N-terminal, cleaved
T3 sequence: T1 sequence
The test is described as above.

Test [4] concerns the target T4, human Hsp90α (residues 1–732), full-length (human, UniProt P07900 1-732).
T4 construct: human Hsp90α, residues 1-732; also called full-length Hsp90; heat shock protein 90; source: E. coli BL21 Star (DE3) pLysS, purified (Ni-INDIGO, TEV cleavage, second Ni-INDIGO, HiPrep Q); not shown: Avi, N-terminal, cleaved; His6, N-terminal, cleaved
Description: ITC; […] (400 μM), […] (400 μM), […] (500 μM) […] (20 μM); 20°C; 20 mM sodium phosphate pH 8, 150 mM NaCl, 2 mM TCEP, 10% glycerol; 1:1 binding model.

B1: Orf9b_(Helix) peptide (peptide)
peptide: IILRLGSPLSLNMARKTLNSLEDKAFQLTPIAVQY
notes: SARS-CoV-2 Orf9b residues 44-77, the helical region seen in the Tom70-Orf9b structure; tyrosine added to aid with quantification
Take B1: the binding result in test [1], in test [2] and in test [3] was “binds” each time.

B2: Tom70:Orf9b_(Helix) complex (complex)
chain 1: T1 sequence
chain 2: B1 peptide
notes: human Tom70, residues 108-608; SARS-CoV-2 Orf9b residues 44-77; tyrosine added to aid with quantification; not shown: Avi, N-terminal, cleaved; His6, N-terminal, cleaved
For B2, in test [4], the “fold by which the inhibitory effect of full-length Orf9b exceeds that of Orf9b_(Helix)” value amounted to 2.4 fold.
